We go through one molecule from patent US20090074756A1 (published 2009).

In experiment [1] the target is T1, human LLT1 (Lectin-like transcript 1), full length (human, UniProt Q9UHP7 1-191).
T1 construct: Expressed on transfected HEK293T, Hela, C1R and P815 cells; The background says LLT1 is a homodimer on the cell surface; also called LLT1-pIRES2-EGFP transfected HEK293T cells
T1 sequence: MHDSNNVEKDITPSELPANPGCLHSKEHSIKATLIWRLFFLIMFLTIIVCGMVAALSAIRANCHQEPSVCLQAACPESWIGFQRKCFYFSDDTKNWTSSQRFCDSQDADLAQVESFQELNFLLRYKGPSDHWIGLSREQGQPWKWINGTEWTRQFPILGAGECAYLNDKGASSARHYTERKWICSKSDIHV
The experiment is described as follows: flow cytometry, LLT1 multimer on LLT1-transfected HEK293T cells. As for the experimental part: (§1) Flow cytometry using the LLT1-Fc-ProteinA-biotin-Streptavidin-APC multimer (LLT1-multimer) was performed to identify the receptor of LLT1.
For orientation: Flow cytometry measures light scatter and fluorescence of single cells or particles in a stream.

Experiment [2] has as its target T2, human CD161 (NKR-P1A) (human, UniProt Q12918 1-225).
T2 construct: Native on polyclonal human NK and T cells in the staining and functional assays; The background calls CD161 a disulfide-bond homodimer; also called CD161 receptor; CD161-pIRES2-EGFP transfected HEK293T cells
T2 sequence: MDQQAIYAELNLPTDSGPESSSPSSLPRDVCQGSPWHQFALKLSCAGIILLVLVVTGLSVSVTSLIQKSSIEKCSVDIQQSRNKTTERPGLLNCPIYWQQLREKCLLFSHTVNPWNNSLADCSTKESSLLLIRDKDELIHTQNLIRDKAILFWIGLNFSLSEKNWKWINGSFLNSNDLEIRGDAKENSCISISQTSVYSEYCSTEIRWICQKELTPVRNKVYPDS
The experiment is described as follows: flow cytometry, LLT1-Fc multimer on CD161-transfected HEK293T cells. On the procedure:
as §1

B1: LLT1-Fc-ProteinA-biotin-Streptavidin-APC multimer (Fc fusion)
chain: RANCHQEPSVCLQAACPESWIGFQRKCFYFSDDTKNWTSSQRFCDSQDADLAQVESFQELNFLLRYKGPSDHWIGLSREQGQPWKWINGTEWTRQFPILGAGECAYLNDKGASSARHYTERKWICSKSDIHV
notes: also called LLT1-multimer; LLT1 multimer; not shown: Fc portion of human IgG1
With B1, the results for the binding result in experiment [1] and in experiment [2] were “no binding” and “binds”, respectively.
